Results reported in the RNAGym collection of RNA variant scans (doi:10.1073/pnas.2313332121).

B1: TPR t1 (parent)
chain: GACCAAUCUGCCCUCAGAGCUCGAGAACAUCUUCGGAUGCAGAGGAGGCAGGCUUCGGUGGCGCGAUAGCGCCAACGUCCUCAACCUCCAAUGCAUCCCACCACAUGAUGAUGCCUGAAGAGCCUUGGUUUUUUG

Variants of: B1
Test: polymerase ribozyme fitness, log enrichment relative to wild type (log ratio); higher = more active; in vitro selection for triplet polymerase activity
Method in brief: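 Streptavidin-bead capture of gel-excised extended constructs, followed by RT-PCR, closed a single triplicate in vitro selection round. That round began by annealing PCR-built, transcribed mutant libraries of each subunit of a heterodimeric triplet polymerase ribozyme with a biotinylated primer, the partner subunit and triplets, then incubating them frozen at −7 °C. After Illumina sequencing of inputs and outputs, genotypes needed ≥10 input reads and ≥1 read per output. Fitness is the base-2 logarithm of genotype enrichment over wild-type enrichment, using inverse-variance-weighted replicate averages.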

Variant | polymerase ribozyme fitness (log ratio)
C97U C124G | 1.72
C53G G71C | -0.515
C4U U9G G35A G47U G48U G63A C104U G113U | -6.85
A43G G58C C62A C85U | -6.11
C49G C99A G120C G122U | -6.79
C72U C82A | -0.812
A41G G110U | -1.97
U33G G69A | -7.83
U109A C115G | -7.19
C22U G69U C82U C124G U126A | -0.7
G61U C123A | 0.578
G58A G61U | -0.422
A18U C73A | -3.04
A2G C12U A43U G44U C115U | -2.29
G60U C102U A108G | -3.29
G63C C79G C123U C124G | 0.0911
G48A A95U | -1.28
U7G G45C G77A C82A C98A | -6.73
G110A U125A | -2.43
A46U G61C C79U | -1.59
G63A C88U G120A G122U | -0.851
U9A A16G C28U U54G C89G C123G U131G | -3.93
A90G C101G G113A G117C | -5.96
A2U G10U C15G U106A | -2.38

Variant | polymerase ribozyme fitness (log ratio)
C56A U116C | -0.712
G10C G60U A118G | -1.45
C11U A26U G52C G61U | -2.85
G117A U129C | -2.05
A18U A37U U78G A84U U87A | -4.45
A50C A111C | 0.0167
U59A A74U | -0.959
C80A U81C | -4.02
C56G C79A C115A U131A | -0.673
C62G G135U | -2.31
G69A C79A A111G | -5.28
G25A U106A | -4.81
C11A G36A A50G G113C | -4.17
G17C C123A | -2.92
A2G C12A C85A G113C | -5.2
G48A C79U U92G U116C G120C | -5.27
G36C C72A C76A U106A G110A | -5.56
C12U C22A G39A C85A C102A | -7.04
U7A U14A G44U | -2.04
G17A C79G C124G U125A | -4.5
G44A C73G C85A U130A | -3.2
G61A A84C C88G | 0.0148
C28G C53U C56G G77A C88U | -1.92
A27U G60A C62U G120C | -2.69

Variant | polymerase ribozyme fitness (log ratio)
G17C A26C A29G C62A G63U | -5.05
G45A C102A G122A | -3.14
C62U A121U | 1.08
G47A C76G C114G | -3.13
C4U G44U | -1.74
C8U C56G C64U C80A | -3.18
C8A G45U | -0.263
A26U A50C G58A | -4.45
C72A C115A G135A | -0.346
C40U C101U C124A | 1.16
C8A C62A | -0.709
G42A C88A G110A | -4.27
G71A G107A C114U | -4.4
A2U U116C | -1.84
C53G C70U U78C U106G | -3.34
U59C U87A | -0.642
C8G G93A G113A | -0.312
C3U U7A A37C G71C | -0.976
G35A G113C | -5.03
C12G C22A A41G G71U C124A | -4.76
G47A G113C G122A | -4.01
C88G U112A | 1.18
C20U G57C C104A | -2.45
C20A U54G C94U | -3.21

Variant | polymerase ribozyme fitness (log ratio)
C3U G17U C72U | -2.73
U54A G61A U106A C124U U129G | -0.685
U9G G69U G107U | -2.73
U7A C64A U106C | -5.95
A26C C49A C98U C114U | -6.14
A6G C56G A103U | -4.63
G48C C49A G128A | -3.09
G39A C40G G69U C101A | -2.28
C64U C101U | 0.0607
G52U C72G A121G | 1.49
A41U G45C C72A U129C | -2.79
C11U A74U G113A | -2.56
A90C A118U | -0.0445
C3A C73U C79G A119G C123A | 0.0633
C20U C64U C85G C94G | -3.93
A37U G110U | -1.34
C15U C72A G110U | -2.17
U7C C101U C104U | 0.219
C11G A16U A24G G47C G63U A111C | -7.31
U54A G63A C73G | -6.66
C13U C115U G117C | -6.41
G57U U92A G120A A121C | -2.28
A16U G61A | -0.972
C15U U21A A100C U109C G117U U130A | -6.66

Variant | polymerase ribozyme fitness (log ratio)
C56G C79A | -1.17
C73A U87G U129A | -1.12
U14A G120C | 0.0767
G10C A50G G69U C89A A121U | 0.925
C13A C86U C124G | 1.07
G63A U96A | -1.81
C72G G113C U129A | -4.04
G60A C72G | -1.01
C15A C101U U112A | -1.08
C22A C40U C73U U112A U129C | -4.96
A26U C72G | -3.37
U54A C88G G135U | -1.43
G17U G52C G77U C123U | -2.34
U9A G42A A43G G47U C56U | -3.28
C13U G61U | 0.429
U7C C20G | -4.91
C8U G63U A90G C115A | -0.076
A24G G51U | -4.9
G48A A103G G110U | -6.26
C8U G117A | 0.294
C4U C8A C123G | 0.914
G61A G77C U96A | -1.55
A43C C49U C70A C102U G110A G128C U131G | -6.44
G61A C73U U78A C114A | -2.49

Variant | polymerase ribozyme fitness (log ratio)
G10U G47C C104U | -1.69
C12U C34A U106A U112C G120C C124G G128A | -5.07
A121U U129G | 1.22
G60A C72G U131A | -1.09
A41U C62U | -1.86
G48A C56A G113U | -4.64
A43U C102U | -3.44
A24G C73G G120A | -2.15
C11A C53U C56A C76G | -3.44
A27G G45A G58A G61A A91G | -5.18
C22U C62U | -4.34
C22G A41U C88G U116G A121G | -4.87
C72G A91C U96C C104A | -4.69
C70U C89A A90G U92A | -6.08
U38C U112A | 1.08
G10A C13U | 0.219
G45U C94U C101G | -3.3
G63A C82U U126G | -2.36
U21A G61C U112A U133C | -0.24
C13A A90G | -1.55
C72U A83G C85U | -1.39
A41G A43U C70U A91C | -3.27
A90U G93A G110A U131G | -5.42
C4G U9G A43U | -1.6

Variant | polymerase ribozyme fitness (log ratio)
A18U C62U | -2.48
A46G G48A | -0.934
G44U U106G A119G | -1.15
U54G G61A C86G | -5.3
G36U G63A C85A | -3.57
C82G A119G | 0.749
G39U U96A C115A U126G | -6.69
U7A G71A | -0.425
A6U C76G C98U | -1.31
C40A G52A C72U A91G | -4.17
A50G G63U | -1.73
C15G G44U | -3.71
C11A C13U C53G A90C A91G | -3.8
U14A C94G | -3.05
C8A C13A C49G C124G | 1.1
G69C G93C G122A | -4.01
G71A A84U | -1.02
C4U C12A G44A U116A | -6.42
C12G C40U G47C C79U C82G C123A U130C | -2.93
C88A U129G | -1.51
C40A G60A G61A U112A | -3
C28A U32C | -3.9
A26G G60C C82A | -2.8
